Laboratory results taken from patent US20240091260A1 (FRED HUTCHINSON CANCER CENTER, published 2024).

What was measured:
[1] = molecular target: T1, PRAME … (ALY) peptide in complex with HLA-A*0201 (HLA-A2) (human); assay: flow cytometry on THP-1 cells, against isotype control
T1 construct: whole, on cells; Naturally processed and presented on PRAME+/HLA-A2+ cells (THP-1, OCI-AML2, RS4;11 HLA-A2+, primary AML blasts, SK-N-SH); no recombinant complex was used; also called PRAME ALY/HLA-A2; PRAME/HLA-A2 complex
Experimental: (§1) Flow cytometry of xenograft cells. PE-conjugated Pr20 antibody was used to confirm PRAME expression on target cell lines and primary patient AML samples. Cell lines and primary samples were washed in 2% FBS in PBS, blocked with 20 ug/mL Fc receptor block (BD Pharmingen, catalog no. 564219) in PBS then stained with PE-conjugated anti-human Pr20 antibody and APC-conjugated HLA-A2 antibody for 20 minutes on ice. Labeled cells were washed with PBS and resuspended in 2% FBS/PBS prior to flow cytometric analysis.

[2] = molecular target: T1, PRAME … (ALY) peptide in complex with …; assay: flow cytometry on OCI-AML2 cells, against isotype control
Experimental: as §1

MFI (fold change to isotype control) [1]: 2.75 fold | MFI (fold change to isotype control) [2]: 5 fold
B1: Pr20 monoclonal antibody (antibody, V domains shown)
VH: QVQLVQSGAEVRKPGASVKVSCKASGGTFSSYAISWVRQAPGQGLEWMGRIIPILGIANYAQKFQGRVTITADKSTSTAYMELSSLRSEDTAVYYCARHYGQWWDYWGQGTLVTVSS
VL: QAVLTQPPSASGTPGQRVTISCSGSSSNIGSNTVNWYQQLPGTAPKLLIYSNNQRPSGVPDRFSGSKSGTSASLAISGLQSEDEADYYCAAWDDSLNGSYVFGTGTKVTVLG
notes: also called Pr20 mAb; Pr20 antibody
